Results on 2 substances are retold here after patent US20160159872A1.

For test [1], the target named is 6xHis-CtBP (UniProt Q13363). Kind of test: competition assay of the CtBP/E1A protein interaction (format not said).
Test [2] has as its target 6xHis-CtBP (UniProt Q13363). Kind of test: competition assay of the CtBP-E1A interaction (AlphaScreen or fluorescence polarization; not said which).
Test [3] concerns the target 6xHis-CtBP (UniProt Q13363). As to the kind of experiment: competition assay of the CtBP/E1A interaction, FIG. 3.
Test [4] addresses 6xHis-CtBP (UniProt Q13363). As to the kind of experiment: fluorescence polarization; unlabeled peptide competes with the FITC-labeled 14mer peptide for CtBP.

A word on the IC50: it is the point on the concentration scale where inhibition reaches its midpoint. Read a high IC50 as weaker potency. Regarding Tat-E1A-flag (peptide), the 50% inhibitory concentration (IC50) in test [1] is 1.7 µM; in test [2], 1.7 µM; in test [3] it was 7.7 µM.

For Wild-type 14mer E1A peptide …, the IC50 in test [1] is 7.26 µM; in test [2], 7.26 µM; in test [4] it was 6 µM.
